The values below come from IntAct's records for PubMed 22699936.

First the molecules themselves.
B1: Centrosomal P4.1-associated protein (Homo sapiens), Q9HC77 (parent)
chain: MFLMPTSSELNSGQNFLTQWMTNPSRAGVILNRGFPILEADKEKRAAVDISTSFPIKGTHFSDSFSFINEEDSLLEEQKLESNNPYKPQSDKSETHTAFPCIKKGPQVAACHSAPGHQEENKNDFIPDLASEFKEGAYKDPLFKKLEQLKEVQQKKQEQLKRQQLEQLQRLMEEQEKLLTMVSGQCTLPGLSLLPDDQSQKHRSPGNTTTGERATCCFPSYVYPDPTQEETYPSNILSHEQSNFCRTAHGDFVLTSKRASPNLFSEAQYQEAPVEKNNLKEENRNHPTGESILCWEKVTEQIQEANDKNLQKHDDSSEVANIEERPIKAAIGERKQTFEDYLEEQIQLEEQELKQKQLKEAEGPLPIKAKPKQPFLKRGEGLARFTNAKSKFQKGKESKLVTNQSTSEDQPLFKMDRQQLQRKTALKNKELCADNPILKKDSKARTKSGSVTLSQKPKMLKCSNRKSLSPSGLKIQTGKKCDGQFRDQIKFENKVTSNNKENVTECPKPCDTGCTGWNKTQGKDRLPLSTGPASRLAAKSPIRETMKESESSLDVSLQKKLETWEREKEKENLELDEFLFLEQAADEISFSSNSSFVLKILERDQQICKGHRMSSTPVKAVPQKTNPADPISHCNRSEDLDHTAREKESECEVAPKQLHSLSSADELREQPCKIRKAVQKSTSENQTEWNARDDEGVPNSDSSTDSEEQLDVTIKPSTEDRERGISSREDSPQVCDDKGPFKDTRTQEDKRRDVDLDLSDKDYSSDESIMESIKHKVSEPSRSSSLSLSKMDFDDERTWTDLEENLCNHDVVLGNESTYGTPQTCYPNNEIGILDKTIKRKIAPVKRGEDLSKSRRSRSPPTSELMMKFFPSLKPKPKSDSHLGNELKLNISQDQPPGDNARSQVLREKIIELETEIEKFKAENASLAKLRIERESALEKLRKEIADFEQQKAKELARIEEFKKEEMRKLQKERKVFEKYTTAARTFPDKKEREEIQTLKQQIADLREDLKRKETKWSSTHSRLRSQIQMLVRENTDLREEIKVMERFRLDAWKRAEAIESSLEVEKKDKLANTSVRFQNSQISSGTQVEKYKKNYLPMQGNPPRRSKSAPPRDLGNLDKGQAASPREPLEPLNFPDPEYKEEEEDQDIQGEISHPDGKVEKVYKNGCRVILFPNGTRKEVSADGKTITVTFFNGDVKQVMPDQRVIYYYAAAQTTHTTYPEGLEVLHFSSGQIEKHYPDGRKEITFPDQTVKNLFPDGQEESIFPDGTIVRVQRDGNKLIEFNNGQRELHTAQFKRREYPDGTVKTVYANGHQETKYRSGRIRVKDKEGNVLMDTEL

Variants of B1 are the subject of the assay. Particulars: with tnks1_human TNKS.
As to D1302A, the “effect of a mutation on the interaction” value is on record as “disrupting interaction”.

As for G1303A, the “effect of a mutation on the interaction” value is “disrupting interaction”.
